Target: T1, GFP-C9orf72 (human, UniProt Q96LT7-1 1-481)
T1 sequence: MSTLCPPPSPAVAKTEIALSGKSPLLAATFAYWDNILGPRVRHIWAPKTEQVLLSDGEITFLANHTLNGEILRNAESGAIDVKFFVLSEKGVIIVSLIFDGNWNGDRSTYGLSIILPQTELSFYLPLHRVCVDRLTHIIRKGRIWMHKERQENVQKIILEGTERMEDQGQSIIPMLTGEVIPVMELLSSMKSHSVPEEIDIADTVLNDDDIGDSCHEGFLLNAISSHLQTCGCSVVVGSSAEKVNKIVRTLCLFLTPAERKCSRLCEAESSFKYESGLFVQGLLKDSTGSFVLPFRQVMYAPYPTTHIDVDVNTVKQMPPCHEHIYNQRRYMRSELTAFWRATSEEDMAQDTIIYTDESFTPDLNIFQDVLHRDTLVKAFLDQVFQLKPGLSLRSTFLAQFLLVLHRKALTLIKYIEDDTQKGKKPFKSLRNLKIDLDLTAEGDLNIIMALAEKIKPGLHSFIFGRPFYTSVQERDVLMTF
Assay: co-IP

- stoichiometry N: ~1
B1: SMCR8-tdTomato (natural protein)
chain: MISAPDVVAFTKEEEYEEEPYNEPALPEEYSVPLFPFASQGANPWSKLSGAKFSRDFILISEFSEQVGPQPLLTIPNDTKVFGTFDLNYFSLRIMSVDYQASFVGHPPGSAYPKLNFVEDSKVVLGDSKEGAFAYVHHLTLYDLEARGFVRPFCMAYISADQHKIMQQFQELSAEFSRASECLKTGNRKAFAGELEKKLKDLDYTRTVLHTETEIQKKANDKGFYSSQAIEKANELASVEKSIIEHQDLLKQIRSYPHRKLKGHDLCPGEMEHIQDQASQASTTSNPDESADTDLYTCRPAYTPKLIKAKSTKCFDKKLKTLEELCDTEYFTQTLAQLSHIEHMFRGDLCYLLTSQIDRALLKQQHITNFLFEDFVEVDDRMVEKQESIPSKPSQDRPPSSSLEECPIPKVLISVGSYKSSVESVLIKMEQELGDEEYKEVEVTELSSFDPQENLDYLDMDMKGSISSGESIEVLGTEKSTSVLSKSDSQASLTVPLSPQVVRSKAVSHRTISEDSIEVLSTCPSEALIPDDFKASYPSAINEEESYPDGNEGAIRFQASISPPELGETEEGSIENTPSQIDSSCCIGKESDGQLVLPSTPAHTHSDEDGVVSSPPQRHRQKDQGFRVDFSVENANPSSRDNSCEGFPAYELDPSHLLASRDISKTSLDNYSDTTSYVSSVASTSSDRIPSAYPAGLSSDRHKKRAGQNALKFIRQYPFAHPAIYSLLSGRTLVVLGEDEAIVRKLVTALAIFVPSYGCYAKPVKHWASSPLHIMDFQKWKLIGLQRVASPAGAGTLHALSRYSRYTSILDLDNKTLRCPLYRGTLVPRLADHRTQIKRGSTYYLHVQSMLTQLCSKAFLYTFCHHLHLPTHDKETEELVASRQMSFLKLTLGLVNEDVRVVQYLAELLKLHYMQESPGTSHPMLRFDYVPSFLYKI
